Results: patent US20210246199A1 (MIT, published 2021)
Like-named read-outs stand apart in the source and are kept apart here.

T1: ^NmCXCL7-SA^C (Nap-2/mCXCL7 48-113 fused to mouse serum albumin) (mouse)
T1 construct: soluble form
T1 chain: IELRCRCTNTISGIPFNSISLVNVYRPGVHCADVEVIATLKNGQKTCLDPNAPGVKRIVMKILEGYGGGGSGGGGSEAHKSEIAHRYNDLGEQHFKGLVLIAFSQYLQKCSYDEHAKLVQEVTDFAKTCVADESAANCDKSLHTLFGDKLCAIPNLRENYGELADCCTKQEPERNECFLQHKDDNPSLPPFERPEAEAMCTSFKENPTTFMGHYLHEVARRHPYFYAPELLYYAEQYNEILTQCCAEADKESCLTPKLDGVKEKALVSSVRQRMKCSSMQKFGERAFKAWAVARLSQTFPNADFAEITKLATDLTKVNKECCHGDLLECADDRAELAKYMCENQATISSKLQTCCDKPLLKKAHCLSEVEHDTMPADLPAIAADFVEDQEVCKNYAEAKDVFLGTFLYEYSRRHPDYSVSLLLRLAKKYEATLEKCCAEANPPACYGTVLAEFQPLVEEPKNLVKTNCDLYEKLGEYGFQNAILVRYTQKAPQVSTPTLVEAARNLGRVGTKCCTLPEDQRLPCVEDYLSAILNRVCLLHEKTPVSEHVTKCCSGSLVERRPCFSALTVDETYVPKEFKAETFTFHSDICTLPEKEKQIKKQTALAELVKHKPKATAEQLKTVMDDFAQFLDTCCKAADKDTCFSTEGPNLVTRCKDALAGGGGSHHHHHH

B1: CK157 (scFv)
scFv: DIQMTQSPSSLSASVGDRVTITCRASQSYGGVAWYQQKPGKAPKLLIYSASYLYSGVPSRFSGSRSGTDFTLTISSLQPEDFATYYCQQPSHLITFGQGTEVEIKGTTAASGSSGGSSSGAEVQLVESGGGLVQPGGSLRLSCAASGSNPYYYGGTHWVRQAPGEELEWVASIGSYPGYTDYADSVKGRFTISADTSKNTAYLQMNSLRAEDTAVYYCARHYYWYDATDYWGQGTLVTVSS
notes: CK2 lineage
B2: CK138 (scFv)
scFv: AIQMTRSPSSLSASVGDRVTITCRASQYHDGSAAWYQQKPGKAPKLLIYGASYLYSGVPSRFSGSRSGTDFTLTISSLQPEDFATYYCQQSSYSLITFGQGTKVEIKGTTAASGSSGGSSSGAEVQLVESDGGLVQPGGSLRLSCAASGFNLSYYGMHWVRQAPGKGLEWVAYIASYPGYTSYADSVKGRFTISADTSKNTAYLQMNSLRAEDTAVYYCARSGYSYSPYYSWFSAGMNYWGQGALVTVSS
notes: CK1 lineage
B3: CK129 (scFv)
scFv: DIQMTQSPSPLSASVGDRVTITCRASQYGGYVAWYQQKPGKAPKLLIYGASLLYSGVPSRFSGGRSGTDFTLTISSLQPEDFATYYCQRGHALITFGQGTKVEIEGTTAASGSSGGSSSGAEVQLVESGGGLVQPGGSLRLSCAASGFNISSYGSMHWVRQAPGKGLEWVASIYPYSSSTYYADSVKGRFTISADTSKNTAYLQMNSLRAEDTAVYYCARGYGPWYAYSYFALDYWGQGTLVTVSS
notes: CK4 lineage

Experiments:
Experiment in all cases: scFv on yeast, soluble CXCL-SA; flow cytometry
five targets (of CK157) = target: five targets (of CK157)
[1] = target: T2, ^NhCXCL1-SA^C (Groα/hCXCL1 35-107 fused to mouse serum albumin) (human; mouse, UniProt P09341 35-107; P07724 25-608)
T2 construct: soluble form; also called Groa
Description: (§1) In brief, DNA plasmids encoding single protein binder clones were transformed into genetically modified Saccharomyces cerevisiae yeast cells (EBY100 strain) using Frozen-EZ Yeast Transformation II Kit (Zymo Research) and plated on selective SD-CAA solid agar media. Individual colonies were inoculated in 5 mL SD-SCAA cultures, grown to mid-log phase (0D600=2-5) in SD-CAA media at 30° C. with shacking (250 rpm). Cells were induced in galactose-containing SG-CAA media for 20 hours at 20° C. with shacking (250 rpm) as previously described (Angelini, A. et al. Protein Engineering and Selection Using Yeast Surface Display. Methods Mol Biol 1319, 3-36 (2015)). The binding assays were conducted in 96-well plates (Corning) containing 1×10⁴ induced cells per well. […] Yeast cells displaying protein binders were incubated with varying concentration of soluble CXC chemokine fusions (^NCXCL-SA^S) bearing the His6 tag and the primary chicken anti-c-myc epitope tag (1:1000) antibody (Gallus Immunotech) overnight at 4° C. with shaking (150 rpm). […] After primary incubation, cells were pelleted (2500× g for 5 min at 4° C.) and washed twice with 200 μL ice-cold PBSA buffer. Secondary labeling was performed with goat anti-chicken and mouse anti-His6 epitope tag antibodies conjugated to Alexa Fluor dyes at recommended dilutions.

[2] = target: T3, ^NhCXCL5-SA^C (ENA-78/hCXCL5 44-114 fused to mouse serum albumin) (human; mouse, UniProt P42830 44-114; P07724 25-608)
T3 construct: soluble form
Description: as §1

[3] = target: T4, ^NmCXCL1-SA^C (KC/mCXCL1 25-96 fused to mouse serum albumin) (mouse, UniProt P12850 25-96; P07724 25-608)
T4 construct: soluble form
Description: as §1

[4] = target: T5, ^NmCXCL2-SA^C (MIP-2/mCXCL2 28-100 fused to mouse serum albumin) (mouse, UniProt P10889 28-100; P07724 25-608)
T5 construct: soluble form
Description: as §1

[5] = target: T6, ^NmCXCL5-SA^C (LIX/mCXCL5 48-118 fused to mouse serum albumin) (mouse, UniProt P50228 48-118; P07724 25-608)
T6 construct: soluble form
Description: as §1

[6] = target: T2, ^NhCXCL1-SA^C (Groα/hCXCL1 35-107 fused …); remark: listed apart in the source
Description: as §1

[7] = target: T7, ^NhCXCL2-SA^C (Groβ/hCXCL2 35-107 fused to mouse serum albumin) (human; mouse, UniProt P19875 35-107; P07724 25-608)
T7 construct: soluble form
Description: as §1

[8] = target: T8, ^NhCXCL3-SA^C (Groγ/hCXCL3 35-107 fused to mouse serum albumin) (human; mouse, UniProt P19876 35-107; P07724 25-608)
T8 construct: soluble form
Description: as §1

[9] = target: T9, ^NhCXCL4-SA^C (PF-4/hCXCL4 32-101 fused to mouse serum albumin) (human; mouse, UniProt P02776 32-101; P07724 25-608)
T9 construct: soluble form
Description: as §1

[10] = target: T3, ^NhCXCL5-SA^C (ENA-78/hCXCL5 44-114 …); remark: listed apart in the source
Description: as §1

[11] = target: T10, ^NhCXCL6-SA^C (GCP-2/hCXCL6 43-114 fused to mouse serum albumin) (human; mouse, UniProt P80162 43-114; P07724 25-608)
T10 construct: soluble form
Description: as §1

[12] = target: T11, ^NhCXCL10-SA^C (IP-10/hCXCL10 22-98 fused to mouse serum albumin) (human; mouse, UniProt P02778 22-98; P07724 25-608)
T11 construct: soluble form
Description: as §1

[13] = target: T12, ^NhCXCL11-SA^C (I-TAC/hCXCL11 22-94 fused to mouse serum albumin) (human; mouse, UniProt O14625 22-94; P07724 25-608)
T12 construct: soluble form
Description: as §1

[14] = target: T4, ^NmCXCL1-SA^C (KC/mCXCL1 25-96 fused to …); remark: listed apart in the source
Description: as §1

[15] = target: T5, ^NmCXCL2-SA^C (MIP-2/mCXCL2 28-100 …); remark: listed apart in the source
Description: as §1

[16] = target: T13, ^NmCXCL3-SA^C (DCIP-1/mCXCL3 28-100 fused to mouse serum albumin) (mouse, UniProt Q6W5C0 28-100; P07724 25-608)
T13 construct: soluble form
Description: as §1

[17] = target: T14, ^NmCXCL4-SA^C (Pf-4/mCXCL4 30-105 fused to mouse serum albumin) (mouse, UniProt Q9Z126 30-105; P07724 25-608)
T14 construct: soluble form
Description: as §1

[18] = target: T6, ^NmCXCL5-SA^C (LIX/mCXCL5 48-118 fused …); remark: listed apart in the source
Description: as §1

[19] = target: T1, ^NmCXCL7-SA^C (Nap-2/mCXCL7 48-113 …)
Description: as §1

[20] = target: T15, ^NmCXCL10-SA^C (Ip-10/mCXCL10 22-98 fused to mouse serum albumin) (mouse, UniProt P17515 22-98; P07724 25-608)
T15 construct: soluble form
Description: as §1

[21] = target: T16, ^NmCXCL11-SA^C (I-Tac/mCXCL11 22-100 fused to mouse serum albumin) (mouse, UniProt Q9JHH5 22-100; P07724 25-608)
T16 construct: soluble form
Description: as §1

[22] = target: these chemokines (the six ELR+ CXC chemokines recognized by CK138)
[23] = target: T17, ^NhCXCL8-SA^C (IL-8/hCXCL8 28-99 fused to mouse serum albumin) (human; mouse, UniProt P10145 28-99; P07724 25-608)
T17 construct: soluble form
Description: as §1

[24] = target: T17, ^NhCXCL8-SA^C (IL-8/hCXCL8 28-99 fused …); remark: listed apart in the source
Description: as §1

Binder | Kd [1] [nM] | Kd [2] [nM] | Kd [3] [nM] | Kd [4] [nM] | Kd [5] [nM] | Kd [6] [nM] | Kd [7] [nM] | Kd [8] [nM] | Kd [9] [nM] | Kd [10] [nM] | Kd [11] [nM] | Kd [14] [nM] | Kd [15] [nM] | Kd [16] [nM] | Kd [18] [nM] | Kd [20] [nM] | further results
B1 | 36.2 | 16.9 | 20.6 | 18.2 | 57.1 | 61.1 | 57.9 | 53.9 | 112 | 26.3 | 46.6 | 24.3 | 19.9 | 17.4 | 96.9 | 44.4 | fold improvement in affinity compared to the initial CK2 (five targets (of CK157)): 20 to 55 fold; Kd [12]: 45.5 nM; Kd [13]: 131 nM; Kd [17]: 17.1 nM; Kd [19]: 13.6 nM; Kd [21]: 124 nM
B2 | 61.9 | 5.8 | 34.8 | 36.2 | 193 | 41.5 | 267 | 349 | 167 | 5.8 | 153 | 35.7 | 29.1 | 10.9 | 176 | 500 | fold improvement in affinity relative to the parental CK1 [22]: 30 to 340 fold; Kd [23]: 7.4 nM; Kd [24]: 6.9 nM
B3 | 0.79 | – | 0.93 | – | – | 1 | 13.9 | 5.7 | – | – | – | 1.1 | – | – | – | – | fold increase in affinity (against the parental CK4 clone) [1]: 50 fold; fold increase in affinity (against the parental CK4 clone) [3]: 800 fold
